{
  "source": "patent US20050100919",
  "about": "“Nucleic acid-based detection” (Brandeis University, a Massachusetts corporation, published 2005)",
  "key": {"[1]": {"molecular_target": "T1, thrombin (UniProt P00734;P00734 P00734:328-363,P00734:364-622)", "assay": "fluorescence change at 100 nM thrombin in TE"}, "[2]": {"molecular_target": "T1, thrombin", "assay": "competition; affinity increase relative to G15D5d, filter binding competition in TE"}, "[3]": {"molecular_target": "T1, thrombin", "assay": "fluorescence beacon titration, TE buffer (20 mM Tris-HCl, 1 mM EDTA, pH 7.5), 24 C; estimated"}, "[4]": {"molecular_target": "factor IX (UniProt P00740 P00740:47-461)", "sequence (P00740 47-461, one chain of several)": "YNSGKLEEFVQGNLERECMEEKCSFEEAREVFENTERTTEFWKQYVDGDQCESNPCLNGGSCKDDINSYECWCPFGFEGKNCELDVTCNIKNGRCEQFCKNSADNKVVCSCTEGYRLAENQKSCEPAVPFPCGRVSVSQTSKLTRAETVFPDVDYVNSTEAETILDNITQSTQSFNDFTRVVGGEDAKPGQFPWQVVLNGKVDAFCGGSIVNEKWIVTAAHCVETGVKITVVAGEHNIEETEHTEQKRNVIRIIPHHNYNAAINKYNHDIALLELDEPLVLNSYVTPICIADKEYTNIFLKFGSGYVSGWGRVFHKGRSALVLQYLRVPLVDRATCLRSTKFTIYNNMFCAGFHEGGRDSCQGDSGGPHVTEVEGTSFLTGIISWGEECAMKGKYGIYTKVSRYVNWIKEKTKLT", "assay": "specificity control; no effect on beacon fluorescence in TE", "conditions": "tags: purchased from Enzyme Research Lab; label: 5'-fluorescein, 3'-DABCYL; alternate 5-bp stem-loop / G4", "method": "Thrombin binding assay using a fluorescence spectrometer: The aptamers were diluted to a concentration of 10 uM in TBB or TE (20 mM Tris-HCl, 1 mM EDTA, pH7.5) and heated at 99° for three min and cooled down to room temperature prior to the experiment. The experiment was performed using 5-40 nM of aptamer in 2 ml. All of the fluorescence intensity measurements were performed at 24° C. The excitation wavelength was 495 nm and the emission was monitored at its peak, 516 nm (in TE) or 518 nm (in TBB). A small volume (0.5-3 μl) of thrombin (final concentration of 0-250 nM) was added and the change of emission was monitored.\nTo confirm the binding specificity of G15D5dMB, we used factor IX, which is a plasma serine protease, as is thrombin, and shares a sequence identity of 37% in the catalytic domain with thrombin."}, "[5]": {"molecular_target": "T1, thrombin", "assay": "fluorescence beacon titration, TE buffer, 24 C; estimated"}, "[6]": {"molecular_target": "T1, thrombin", "assay": "fluorescence ratio at 100 nM thrombin in TBB; 0.7 in TE"}, "[7]": {"molecular_target": "T1, thrombin", "assay": "half-maximum effect, fluorescence decrease, TBB (20 mM Tris-HCl, 140 mM NaCl, 5 mM KCl, 1 mM MgCl2, 1 mM CaCl2, pH 7.5)"}, "[8]": {"molecular_target": "T1, thrombin", "assay": "fluorescence change at 100 nM thrombin in TBB; not saturated at 250 nM"}, "[9]": {"molecular_target": "T1, thrombin", "assay": "competition; filter binding competition against radiolabeled G15D5d, TBB; displacement curve only in figure"}},
  "data": [
    {"binder": "CCAACGGTTGGTGTGGTTGG (ssDNA)", "note": "[G15D5dMB]", "values": [
      {"measurement": "activity", "setting": "[1]", "result": 2.3, "unit": "fold"},
      {"measurement": "binding signal", "setting": "[2]", "result": "~6", "unit": "fold"},
      {"measurement": "Kd", "setting": "[3]", "result": 3, "unit": "nM"},
      {"measurement": "binding result", "setting": "[4]", "result": "no binding"}
    ]},
    {"binder": "CCAACCGGTTGGTGTGGTTGG (ssDNA)", "note": "[G15D6dMB]", "values": [
      {"measurement": "activity", "setting": "[1]", "result": 1.7, "unit": "fold"},
      {"measurement": "Kd", "setting": "[5]", "result": 12, "unit": "nM"}
    ]},
    {"binder": "TTTTTGGTTGGTGTGGTTGG (ssDNA)", "note": "[G15D5ndMB]", "values": [
      {"measurement": "activity", "setting": "[6]", "result": 0.5, "unit": "fold"},
      {"measurement": "EC50", "setting": "[7]", "result": "~80", "unit": "nM"}
    ]},
    {"binder": "CCAAGGTTGGTGTGGTTGG (ssDNA)", "note": "[G15D4dMB]", "values": [
      {"measurement": "activity", "setting": "[8]", "result": 1.5, "unit": "fold"}
    ]},
    {"binder": "GGTTGGTGTGGTTGG (ssDNA)", "note": "[G15D]", "values": [
      {"measurement": "binding result", "setting": "[9]", "result": "binds"}
    ]}
  ]
}
